The text below walks through data of paper PMC9204741 (2022).

In one assay the target is LonA-His6 (B. subtilis) (UniProt P37945).
Assay [1] deals with T1, His6-SmiA (B. subtilis).
T1 chain: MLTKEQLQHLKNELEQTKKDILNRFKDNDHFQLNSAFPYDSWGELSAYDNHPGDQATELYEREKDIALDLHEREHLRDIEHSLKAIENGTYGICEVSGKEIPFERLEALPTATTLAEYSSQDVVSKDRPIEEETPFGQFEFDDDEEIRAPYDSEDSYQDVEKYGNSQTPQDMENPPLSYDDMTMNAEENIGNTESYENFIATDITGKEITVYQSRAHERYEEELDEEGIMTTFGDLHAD
Nature of the assay: BLI. (In general: In BLI a coated tip is dipped into the sample, and binding shifts an interference pattern.)

Assay [2] addresses T1, His6-SmiA. Description: BLI; His6-SmiA (300 nM) loaded on anti-penta-His (HIS1K) biosensors; GST-SwrA variants 50-400 nM as analyte; 1x PBS, 1x kinetics buffer, 2% dialyzed fetal bovine serum, 0.5 mM TCEP; 1:1 binding model; Octet RED96.

Chain of LonA-His6 (B. subtilis) (P37945 whole entry): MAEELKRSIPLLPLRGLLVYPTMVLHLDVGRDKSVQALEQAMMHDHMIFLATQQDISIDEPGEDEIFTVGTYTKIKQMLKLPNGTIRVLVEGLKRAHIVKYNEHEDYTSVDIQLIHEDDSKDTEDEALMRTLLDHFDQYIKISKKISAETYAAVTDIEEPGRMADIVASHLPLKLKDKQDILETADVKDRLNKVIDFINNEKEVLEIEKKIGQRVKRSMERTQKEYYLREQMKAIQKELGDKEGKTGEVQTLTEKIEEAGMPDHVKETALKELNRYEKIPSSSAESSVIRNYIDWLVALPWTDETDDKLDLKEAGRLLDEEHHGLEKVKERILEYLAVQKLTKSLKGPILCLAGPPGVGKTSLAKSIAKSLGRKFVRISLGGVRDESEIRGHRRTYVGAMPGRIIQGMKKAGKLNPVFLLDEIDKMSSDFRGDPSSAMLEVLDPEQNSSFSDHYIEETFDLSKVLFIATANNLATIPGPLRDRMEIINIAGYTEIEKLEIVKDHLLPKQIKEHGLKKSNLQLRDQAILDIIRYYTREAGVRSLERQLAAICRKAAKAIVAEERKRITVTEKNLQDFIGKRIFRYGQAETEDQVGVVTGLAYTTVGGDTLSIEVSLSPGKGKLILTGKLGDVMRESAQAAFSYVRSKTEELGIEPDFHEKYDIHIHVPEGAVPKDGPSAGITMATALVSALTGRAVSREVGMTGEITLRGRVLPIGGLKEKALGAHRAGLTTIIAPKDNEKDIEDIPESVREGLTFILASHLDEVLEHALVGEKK

Consider “GST-mNG-SwrA (from UniProt O32266 1-117) (natural protein)”, for which the Km of in vitro proteolysis of GST-mNG-SwrA (loss of fluorescence) with 0.25 μM LonA and 0.5 μM SmiA in the assay with LonA-His6 (B. subtilis) was determined as 1.14 µM.

B1: GST-SwrA^Δ101–117 (domain or fragment)
chain: MKRASIVREKKYYELVEQLKDRTQDVTFSATKALSLLMLFSRYLVNYTNVESVNDINEECAKHYFNYLMKNHKRLGINLTDIKRSMHLISGLLDVDVNHY
B1 yielded a Kd in the assay with His6-SmiA [1] of 43.2 nM. In the assay with His6-SmiA [2], this molecule registered a Kd of 43.2 nM, a koff of 0.00418 s⁻¹ and a kon of 96800 M⁻¹ s⁻¹.

B2: GST-SwrA (natural protein)
chain: MKRASIVREKKYYELVEQLKDRTQDVTFSATKALSLLMLFSRYLVNYTNVESVNDINEECAKHYFNYLMKNHKRLGINLTDIKRSMHLISGLLDVDVNHYLKDFSLSNVTLWMTQER
B2 displayed a Kd with His6-SmiA [1] of 60.9 nM. In the assay with His6-SmiA [2], the koff stood at 0.0093 s⁻¹ and the kon came to 153000 M⁻¹ s⁻¹.

What is called Kd is the free concentration of one partner at which half of the binding sites on the other are occupied at equilibrium, for simple one-to-one binding. Read a low Kd as higher affinity. As a reminder, the koff is the rate constant with which the complex falls apart. Low values mean a long-lived complex, high ones a short-lived complex. As usually defined, the kon is the rate constant with which the complex forms.
